The labels stand for the following.
B1: TNF receptor-associated factor 4 (Homo sapiens), Q9BUZ4 (parent)
chain: MPGFDYKFLEKPKRRLLCPLCGKPMREPVQVSTCGHRFCDTCLQEFLSEGVFKCPEDQLPLDYAKIYPDPELEVQVLGLPIRCIHSEEGCRWSGPLRHLQGHLNTCSFNVIPCPNRCPMKLSRRDLPAHLQHDCPKRRLKCEFCGCDFSGEAYESHEGMCPQESVYCENKCGARMMRRLLAQHATSECPKRTQPCTYCTKEFVFDTIQSHQYQCPRLPVACPNQCGVGTVAREDLPGHLKDSCNTALVLCPFKDSGCKHRCPKLAMARHVEESVKPHLAMMCALVSRQRQELQELRRELEELSVGSDGVLIWKIGSYGRRLQEAKAKPNLECFSPAFYTHKYGYKLQVSAFLNGNGSGEGTHLSLYIRVLPGAFDNLLEWPFARRVTFSLLDQSDPGLAKPQHVTETFHPDPNWKNFQKPGTWRGSLDESSLGFGYPKFISHQDIRKRNYVRDDAVFIRAAVELPRKILS

From IntAct's records for PubMed 19937093 come the findings set out here.

In the assay the parent is B1. The conditions noted are these: with SMURF1, Q9HCE7-2.
Sequence of SMURF1, Q9HCE7-2 (Q9HCE7 other isoform, or with tags, fused parts or gaps): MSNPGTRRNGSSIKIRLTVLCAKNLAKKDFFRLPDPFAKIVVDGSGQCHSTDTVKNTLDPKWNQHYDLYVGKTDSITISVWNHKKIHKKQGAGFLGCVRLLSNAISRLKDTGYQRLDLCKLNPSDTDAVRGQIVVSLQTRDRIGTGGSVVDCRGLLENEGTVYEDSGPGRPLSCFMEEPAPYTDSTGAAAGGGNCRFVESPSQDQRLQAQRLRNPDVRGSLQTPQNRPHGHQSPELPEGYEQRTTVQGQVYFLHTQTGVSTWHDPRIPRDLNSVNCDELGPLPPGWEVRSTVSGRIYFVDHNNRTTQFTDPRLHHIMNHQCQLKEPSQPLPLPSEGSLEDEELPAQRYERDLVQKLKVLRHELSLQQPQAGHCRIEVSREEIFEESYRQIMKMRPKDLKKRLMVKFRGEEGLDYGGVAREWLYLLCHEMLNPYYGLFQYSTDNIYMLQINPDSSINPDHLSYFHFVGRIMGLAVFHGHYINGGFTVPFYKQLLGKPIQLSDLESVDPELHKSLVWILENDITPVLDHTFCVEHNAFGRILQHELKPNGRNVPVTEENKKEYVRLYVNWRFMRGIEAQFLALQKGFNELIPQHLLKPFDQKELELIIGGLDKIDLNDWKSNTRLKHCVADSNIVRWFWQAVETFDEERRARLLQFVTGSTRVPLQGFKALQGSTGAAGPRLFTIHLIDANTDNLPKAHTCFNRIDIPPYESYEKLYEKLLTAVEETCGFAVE
In the case of MPGFDYKFLEKPKRRLLCPLCGKPMREPVQVSTCGHRFCDTCLQEFLSEGVFKCPEDQLAAAAAKIYPDPELEVQVLGLPIRCIHSEEGCRWSGPLRHLQGHLNTCSFNVIPCPNRCPMKLSRRDLPAHLQHDCPKRRLKCEFCGCDFSGEAYESHEGMCPQESVYCENKCGARMMRRLLAQHATSECPKRTQAAAACTKEFVFDTIQSHQYQCPRLPVACPNQCGVGTVAREDLPGHLKDSCNTALVLCPFKDSGCKHRCPKLAMARHVEESVKPHLAMMCALVSRQRQELQELRRELEELSVGSDGVLIWKIGSYGRRLQEAKAKPNLECFSAAAATHKYGYKLQVSAFLNGNGSGEGTHLSLYIRVLPGAFDNLLEWPFARRVTFSLLDQSDPGLAKPQHVTETFHPDPNWKNFQKPGTWRGSLDESSLGFGYPKFISHQDIRKRNYVRDDAVFIRAAVELPRKILS [P60A;L61A;D62A;Y63A;P194A;C195A;T196A;Y197A;P335A;F337A;Y338A], the “effect of a mutation on the interaction” value is listed as “disrupting interaction”.
